Reference: patent US20260103490A1 (published 2026)
Positions count from the first letter of the chain named.

B1: NbALFA^ST (NbALFA clone 1G5) (VHH)
VHH: EVQLQESGGGLVQPGGSLRLSCTASGVTISALNAMAMGWYRQAPGERRVMVAAVSERGNAMYRESVQGRFTVTRDFTNKMVSLQMDNLKPEDTAVYYCHVLEDRVDSFHDYWGQGTQVTVSS
notes: Alpaca single-domain antibody; also called ALFA Selector^ST (resin-immobilised form); FluoTag-X2 anti-ALFA (fluorophore-coupled form)
B2: NbALFA^PE (NbALFA mutant for Peptide Elution) (VHH)
VHH: B1 VHH with R47E, E56S
notes: Weaker mutant of NbALFA^ST; used immobilised on agarose (ALFA Selector^PE) or in solution (MST); also called ALFA Selector^PE (resin-immobilised form)

What was measured:
[1] = molecular target: FLAG-HA-MBP-myc-ALFA^ST; experiment: dot blot of a dilution series of the MBP fusion
Procedure: Membranes were scanned using Odyssey CLx (Li-COR). Quantifications were performed using ImageStudioLight (Li-COR).

[2] = molecular target: T1, ALFA^ST peptide (Ac-PSRLEEELRRRLTEP-Amide); experiment: competitive elution of shGFP2-ALFA^ST from NbALFA^PE resin
T1 construct: also called free ALFA^ST peptide; ALFA peptide
T1 peptide: Ac-PSRLEEELRRRLTEP-NH2

Row | Binder | fold lower detection limit than for the other epitope tags [1] [fold] | binding result [2]
1 | B1 | ~10 | –
2 | B2 | – | binds
